Test results published in publication PMC4962041, “Human DNA-Damage-Inducible 2 Protein Is Structurally and Functionally Distinct from Its Yeast Ortholog” (Scientific Reports, 2016).
One block for each binder: values may come before it. No end group written: not given here.

Experiments:
[1] = target: the molecule itself; assay: crystal structure; hDdi2 RVP (212-360), 1.9 Å, PDB 4RGH; hanging drop, 0.2 M ammonium acetate, 0.1 M Bis-Tris pH 5.5, 25% PEG 3350
human ubiquitin [2] = target: T1, human ubiquitin (human, UniProt P0CG48 1-76); assay: NMR titration; 15N-labelled hDdi2 UBL (0.05 mM) with a 1- to 10-fold molar excess of UBQ; 50 mM sodium phosphate, pH 7.4, 25 °C; 1:1 model for the Kd; conditions: both partners purified
T1 construct: human ubiquitin, the cut product of the ubiquitin precursors; shifts were mapped on PDB 1D3Z; also called UBQ; mono-UBQ; source: 15N- or 15N/13C-labelled where observed by NMR

[3] = target: the molecule itself; assay: SAXS; His-tagged HDD-RVP at 5 and 2.5 mg/ml in 25 mM Tris/HCl, 75 mM NaCl, 5% glycerol, 1 mM DTT, pH 7.4; molecular mass from the invariant Vc
human ubiquitin [4] = target: T1, human ubiquitin; assay: NMR titration; 15N-labelled UBQ (0.1 mM) with unlabelled peptide; 15N/1H-HSQC chemical shift perturbation; 50 mM sodium phosphate, pH 6.0 and pH 7.4, 25 °C; 1:1 model for the Kd; conditions: both partners purified

B1: hDdi2 RVP domain (residues 212-360) (domain or fragment)
chain: not shown
notes: Gln232 to Pro359 visible in the structure
binding result [1]: binds

B3: hDdi2 HDD-RVP (residues 116-360) (domain or fragment, human, UniProt Q5TDH0 116-360, looked up)
chain: QQSHSSPGEITSSPQGLDNPALLRDMLLANPHELSLLKERNPPLAEALLSGDLEKFSRVLVEQQQDRARREQERIRLFSADPFDLEAQAKIEEDIRQQNIEENMTIAMEEAPESFGQVVMLYINCKVNGHPVKAFVDSGAQMTIMSQACAERCNIMRLVDRRWAGIAKGVGTQKIIGRVHLAQVQIEGDFLPCSFSILEEQPMDMLLGLDMLKRHQCSIDLKKNVLVIGTTGSQTTFLPEGELPE
notes: human DNA-damage-inducible 2 protein (Ddi homolog 2, 399 amino acids), residues 116-360 (lacking both UBL and UIM); Called His-tagged for the SAXS experiment; dimer by SAXS; not shown: His tag, N-terminal, kept
stoichiometry N [3]: 2

Now from value to binder:

Kd (human ubiquitin [2]): 420 to 1100 µM
B2: hDdi2 UBL domain (residues 1-76) (domain or fragment, human, UniProt Q5TDH0 1-76, looked up)
chain: MLLTVYCVRRDLSEVTFSLQVDADFELHNFRALCELESGIPAAESQIVYAERPLTDNHRSLASYGLKDGDVVILRQ
notes: human DNA-damage-inducible 2 protein (Ddi homolog 2, 399 amino acids), residues 1-76: ubiquitin-like domain; also called N-terminal UBL domain of hDdi2; not shown: His tag, N-terminal, kept

Kd (human ubiquitin [4]): 2200 to 3200 µM
B4: hDdi2-UIM peptide (peptide)
peptide: EEIADQELAEALQKSAEDAE-NH2
notes: Dissolved in DMSO before use; also called C-terminal hDdi2 UIM peptide; source: synthetic peptide (solid phase, HPLC purified)
